Source: the Human Domainome abundance scans (Beltran et al. 2025)

B1: Zinc finger homeobox protein 4, residues 2562 to 2617; numbered along this chain, Q86UP3 (parent)
chain: RLRTTITPEQLEILYEKYLLDSNPTRKMLDHIAREVGLKKRVVQVWFQNTRARERK

Variants of: B1
Test: abundance fitness (aPCA) (normalised: wild type 0, dead -1); higher = more abundant; growth selection in yeast, the domain comes from the species named
Conditions: Homo sapiens

Abundance fitness: each site, then its substitutions
R55: C 0.063; M 0.128; D 0.262; S 0.09; I 0.053; F -0.23; P 0.001; H -0.086; L 0.128; K -0.035; G 0.11; Q -0.078; N 0.297; A 0.107
T50: W -0.097; S 0.06; C -0.345; Y -0.107; L -0.137; V -0.068; K 0.028; I -0.042; A 0.041; E 0.265; F -0.069; G -0.367; H -0.034; N -0.127; P -0.738; R 0.08; M -0.094
R51: W 0.057; N 0.156; H 0.32; E -0.15; V 0.017; A 0.17; Y -0.192; F -0.08; M -0.021; K 0.039; I 0.134; G -0.151; S 0.086; T -0.242; P -1.05; C -0.267; L 0.234
N49: K -0.489; A 0.043; D -0.043; Y -0.414; Q -0.104; W -0.422; C -0.282; S -0.009; L -0.25; T -0.102; P -0.73; I 0.12; R -0.477; E 0.253; V -0.125; H -0.423; M 0.029; G -0.182
R53: N 0.052; P -0.373; L 0.039; C 0.045; T 0.021; V -0.03; D 0.226; Y -0.62; H 0.104; M 0.077; F 0.066; S 0.168; G 0.054; I -0.156; E 0.394; Q 0.145; K 0.14; W -0.315; A -0.014
Q48: C -0.287; S -0.049; V -0.152; L -0.611; A 0.2; G 0.178; P -1.02; R -0.166; D 0.392; Y -0.168; H -0.139; E 0.433; W -0.556; F -0.389; T 0.008; I -0.693; N -0.216; M -0.16; K -0.006
W46: K -1.03; L -0.887; S -0.91; V -0.723; P -0.802; T -0.756; M -0.815; H -0.878; Q -1.05; I -0.939; G -0.752
A52: Q -0.035; W -0.347; L -0.226; R -0.321; F -0.498; H -0.172; Y -0.781; V -0.327; K -0.086; M -0.268; N 0.189; P -0.693; S -0.197; E 0.283; D 0.384; G -0.096; C -0.702; T -0.372
E54: L -0.201; F 0.025; M -0.09; D -0.122; I -0.283; P -0.545; Y -0.715; W -0.307; A -0.433; Q -0.664; C -0.811; K -0.722; V -0.523; R -0.615; H -0.672; S -0.254; T -0.737; G -0.362
F47: D -0.46; Y -0.072; V -0.974; I -0.765; P -0.885; N -0.905; E -0.806; T -0.789; K -1; A -0.983; Q -1.18; G -0.913; R -0.969; H -0.865; W 0.049; L -0.74
